Measured values published in paper PMC3509953 (Journal of molecular biology, 2012).
Substitutions are numbered along the chain they refer to. Names may count otherwise.

B1: DAN (differential screening selected gene abberative in neuroblastoma) (natural protein, human)
chain: AAPPPINKLALFPDKSAWCEAKNITQIVGHSGCEAKSIQNRACLGQCFSYSVPNTFPQSTESLVHCDSCMPAQSMWEIVTLECPGHEEVPRVDKLVEKILHCSCQACGKEPSHEGLSVYVQGEDGPGSQPGTHPHPHPHPHPGGQTPEPEDPPGAPHTEEEGAEDLEVLFQ
B2: Protein related to DAN and Cerberus (PRDC), wild type, bacterially produced (natural protein, mouse, UniProt O88273 22-168, looked up)
chain: RKNRPAGAIPSPYKDGSSNNSERWHHQIKEVLASSQEALVVTERKYLKSDWCKTQPLRQTVSEEGCRSRTILNRFCYGQCNSFYIPRHVKKEEDSFQSCAFCKPQRVTSVIVELECPGLDPPFRIKKIQKVKHCRCMSVNLSDSDKQ
modifications: a single glutathione (by mass spectrometry; residue not stated)
B3: BMP2 (ligand, UniProt P12643 283-396, looked up)
chain: QAKHKQRKRLKSSCKRHPLYVDFSDVGWNDWIVAPPGYHAFYCHGECPFPLADHLNSTNHAIVQTLVNSVNSKIPKACCVPTELSAISMLYLDENEKVVLKNYQDMVVEGCGCR
B4: BMP4 (ligand, UniProt P12644 293-408, looked up)
chain: SPKHHSQRARKKNKNCRRHSLYVDFSDVGWNDWIVAPPGYQAFYCHGDCPFPLADHLNSTNHAIVQTLVNSVNSSIPKACCVPTELSAISMLYLDEYDKVVLKNYQEMVVEGCGCR
B5: BMP7 (ligand, UniProt P18075 293-431, looked up)
chain: STGSKQRSQNRSKTPKNQEALRMANVAENSSSDQRQACKKHELYVSFRDLGWQDWIIAPEGYAAYYCEGECAFPLNSYMNATNHAIVQTLVHFINPETVPKPCCAPTQLNAISVLYFDDSSNVILKKYRNMVVRACGCH
B6: PRDC with the unpaired cysteine mutated to serine (C120S), bacterially produced (natural protein, mouse, UniProt O88273 22-168, looked up)
chain: B2 chain with C99S
B7: activin A (ligand, UniProt P08476 311-426, looked up)
chain: GLECDGKVNICCKKQFFVSFKDIGWNDWIIAPSGYHANYCEGECPSHIAGTSGSSLSFHSTVINHYRMRGHSPFANLKSCCVPTKLRPMSMLYYDDGQNIIKKDIQNMIVEECGCS

Columns and labels:
cross-linking = target: the molecule itself; assay: cross-linking
SEC = target: the molecule itself; assay: SEC
[1] = target: B6; assay: SPR
AUC = target: the molecule itself; assay: AUC
[2] = target: the molecule itself; assay: MALDI-TOF mass spectrometry

Binder: B1
stoichiometry N (cross-linking): 2

Binder: B2
stoichiometry N (SEC): 2

Binder: B3
Kd [1]: 57.1 ± 7.8 nM

Binder: B4
Kd [1]: 70.7 ± 2.6 nM

Binder: B5
Kd [1]: 86.6 ± 3.7 nM

Binder: B6
stoichiometry N (AUC): 2

Binder: B7
stoichiometry N [2]: 2
